Assay results from US20170081400A1 (CEPHALON, published 2017).

What was measured:
[1] = molecular target: T1, human TL1A extracellular domain with N-terminal HIS and FLAG tag (human, UniProt O95150 72-251); test: SPR Run 4, purified Ab captured on Protein A, TL1A 5 ug/mL, timepoint 44
T1 construct: the whole entry is named
T1 sequence: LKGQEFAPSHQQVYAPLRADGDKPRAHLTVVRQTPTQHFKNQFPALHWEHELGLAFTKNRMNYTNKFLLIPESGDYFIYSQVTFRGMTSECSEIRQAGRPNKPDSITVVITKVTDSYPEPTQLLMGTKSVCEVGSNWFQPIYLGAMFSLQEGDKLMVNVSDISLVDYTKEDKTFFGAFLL
Text: (§1) 1.5. Antibody expression and antigen binding as determined by SPR. Using a CM5 sensor chip (GE Healthcare) Protein A (Pierce) was coupled to the chip surface using an amine coupling kit (GE Healthcare). Protein A was coupled on flow cell 1 and 2 (or alternatively 3 and 4) using a BIACORE® T200. […] The amount of supernatant or purified protein (as well as the concentration) injected during the capture stage varied between runs and is specified in the header of the Tables 3-11. At the end of injection of the supernatant or purified antibody the change in response units was measured. This value was reported as Capture Level in Tables 3-11. […] The response units were measured prior to the end of the dissociation phase. […] The sensorgrams were double referenced (flow cell 2 is subtracted from flow cell 1 and a buffer blank). As there were a large number of antibody variants to screen, these were screened across different runs (Tables 3-11). […] A summary of the conditions used in each run is below:
(§2) 2.1. […] In some experiment the antibodies were purified using Protein A chromatography (See 1.4) and purified antibodies were used in BIACORE® (GE Healthcare) experiments.

[2] = molecular target: T1, human TL1A extracellular domain with …; test: SPR Run 4, purified Ab captured on Protein A, TL1A 5 ug/mL, timepoint 220
Text: as §1, §2

B1: 320-315 (antibody, human IgG1, name in Kabat numbering, V domains shown)
VH: QVQLVQSGAEVKKPGASVKVSCKASGYTFTSYDINWVRQAPGQGLEWMGWLNPNSGNTGYAQKFQGRVTMTADRSTSTAYMELSSLRSEDTAVYYCAREVPETAAFEYWGQGTLVTVSS
VL: QSVLTQPPSVSGAPGQRVTISCTSSSSDIGAGLGVHWYQQLPGTAPKLLIEGYYNRPSGVPDRFSGSKSGTSASLTITGLLPEDEGDYYCLSYDGTLSALFGGGTKLTVLG
notes: human IgG1, lambda
TL1A Binding Level (Early) [1]: 85 RU | TL1A Binding Level (Late) [2]: 82 RU

B2: 320-343 (antibody, human IgG1, name in Kabat numbering, V domains shown)
VH: QVQLVQSGAEVKKPGASVKVSCKASGYTFTSYDINWVRQAPGQGLEWMGWLNPNSGNTGYAQKFQGRVTMTADRSTSTAYMELSSLRSEDTAVYYCAREVPETAAFEYWGQGTLVTVSS
VL: QSVLTQPPSVSGAPGQRVTISCTSSSSDIGAGLGVHWYQQLPGTAPKLLIEGYYNRPSGVPDRFSGSKSGTSASLTITGLLPEDEGDYYCQSYDDTLSALFGGGTKLTVLG
notes: human IgG1, lambda
TL1A Binding Level (Early) [1]: 121 RU | TL1A Binding Level (Late) [2]: 90 RU

B3: 320-344 (antibody, human IgG1, name in Kabat numbering, V domains shown)
VH: QVQLVQSGAEVKKPGASVKVSCKASGYTFTSYDINWVRQAPGQGLEWMGWLNPNSGNTGYAQKFQGRVTMTADRSTSTAYMELSSLRSEDTAVYYCAREVPETAAFEYWGQGTLVTVSS
VL: QSVLTQPPSVSGAPGQRVTISCTSSSSDIGAGLGVHWYQQLPGTAPKLLIEGYYNRPSGVPDRFSGSKSGTSASLTITGLLPEDEGDYYCQSYDHTLSALFGGGTKLTVLG
notes: human IgG1, lambda
TL1A Binding Level (Early) [1]: 117 RU | TL1A Binding Level (Late) [2]: 87 RU

B4: 320-341 (antibody, human IgG1, name in Kabat numbering, V domains shown)
VH: QVQLVQSGAEVKKPGASVKVSCKASGYTFTSYDINWVRQAPGQGLEWMGWLNPNSGNTGYAQKFQGRVTMTADRSTSTAYMELSSLRSEDTAVYYCAREVPETAAFEYWGQGTLVTVSS
VL: QSVLTQPPSVSGAPGQRVTISCTSSSSDIGAGLGVHWYQQLPGTAPKLLIEGYYNRPSGVPDRFSGSKSGTSASLTITGLLPEDEGDYYCQSYDSTLSALFGGGTKLTVLG
notes: human IgG1, lambda
TL1A Binding Level (Early) [1]: 149 RU | TL1A Binding Level (Late) [2]: 135 RU

B5: 320-330 (antibody, human IgG1, name in Kabat numbering, V domains shown)
VH: QVQLVQSGAEVKKPGASVKVSCKASGYTFTSYDINWVRQAPGQGLEWMGWLNPNSGNTGYAQKFQGRVTMTADRSTSTAYMELSSLRSEDTAVYYCAREVPETAAFEYWGQGTLVTVSS
VL: QSVLTQPPSVSGAPGQRVTISCTSSSSDIGAGLGVHWYQQLPGTAPKLLIEGYYNRPSGVPDRFSGSKSGTSASLTITGLLPEDEGDYYCQSLDGTLSALFGGGTKLTVLG
notes: human IgG1, lambda
TL1A Binding Level (Early) [1]: 139 RU | TL1A Binding Level (Late) [2]: 119 RU

B6: 320-342 (antibody, human IgG1, name in Kabat numbering, V domains shown)
VH: QVQLVQSGAEVKKPGASVKVSCKASGYTFTSYDINWVRQAPGQGLEWMGWLNPNSGNTGYAQKFQGRVTMTADRSTSTAYMELSSLRSEDTAVYYCAREVPETAAFEYWGQGTLVTVSS
VL: QSVLTQPPSVSGAPGQRVTISCTSSSSDIGAGLGVHWYQQLPGTAPKLLIEGYYNRPSGVPDRFSGSKSGTSASLTITGLLPEDEGDYYCQSYDQTLSALFGGGTKLTVLG
notes: human IgG1, lambda
TL1A Binding Level (Early) [1]: 152 RU | TL1A Binding Level (Late) [2]: 139 RU

B7: 320-320 (antibody, human IgG1, name in Kabat numbering, V domains shown)
VH: QVQLVQSGAEVKKPGASVKVSCKASGYTFTSYDINWVRQAPGQGLEWMGWLNPNSGNTGYAQKFQGRVTMTADRSTSTAYMELSSLRSEDTAVYYCAREVPETAAFEYWGQGTLVTVSS
VL: QSVLTQPPSVSGAPGQRVTISCTSSSSDIGAGLGVHWYQQLPGTAPKLLIEGYYNRPSGVPDRFSGSKSGTSASLTITGLLPEDEGDYYCQDYDGTLSALFGGGTKLTVLG
notes: human IgG1, lambda
TL1A Binding Level (Early) [1]: 31 RU | TL1A Binding Level (Late) [2]: 17 RU

B8: 320-317 (antibody, human IgG1, name in Kabat numbering, V domains shown)
VH: QVQLVQSGAEVKKPGASVKVSCKASGYTFTSYDINWVRQAPGQGLEWMGWLNPNSGNTGYAQKFQGRVTMTADRSTSTAYMELSSLRSEDTAVYYCAREVPETAAFEYWGQGTLVTVSS
VL: QSVLTQPPSVSGAPGQRVTISCTSSSSDIGAGLGVHWYQQLPGTAPKLLIEGYYNRPSGVPDRFSGSKSGTSASLTITGLLPEDEGDYYCYSYDGTLSALFGGGTKLTVLG
notes: human IgG1, lambda
TL1A Binding Level (Early) [1]: 86 RU | TL1A Binding Level (Late) [2]: 83 RU

B9: 320-332 (antibody, human IgG1, name in Kabat numbering, V domains shown)
VH: QVQLVQSGAEVKKPGASVKVSCKASGYTFTSYDINWVRQAPGQGLEWMGWLNPNSGNTGYAQKFQGRVTMTADRSTSTAYMELSSLRSEDTAVYYCAREVPETAAFEYWGQGTLVTVSS
VL: QSVLTQPPSVSGAPGQRVTISCTSSSSDIGAGLGVHWYQQLPGTAPKLLIEGYYNRPSGVPDRFSGSKSGTSASLTITGLLPEDEGDYYCQSYAGTLSALFGGGTKLTVLG
notes: human IgG1, lambda
TL1A Binding Level (Early) [1]: 66 RU | TL1A Binding Level (Late) [2]: 44 RU

B10: 320-340 (antibody, human IgG1, name in Kabat numbering, V domains shown)
VH: QVQLVQSGAEVKKPGASVKVSCKASGYTFTSYDINWVRQAPGQGLEWMGWLNPNSGNTGYAQKFQGRVTMTADRSTSTAYMELSSLRSEDTAVYYCAREVPETAAFEYWGQGTLVTVSS
VL: QSVLTQPPSVSGAPGQRVTISCTSSSSDIGAGLGVHWYQQLPGTAPKLLIEGYYNRPSGVPDRFSGSKSGTSASLTITGLLPEDEGDYYCQSYDATLSALFGGGTKLTVLG
notes: human IgG1, lambda
TL1A Binding Level (Early) [1]: 145 RU | TL1A Binding Level (Late) [2]: 132 RU

B11: 320-333 (antibody, human IgG1, name in Kabat numbering, V domains shown)
VH: QVQLVQSGAEVKKPGASVKVSCKASGYTFTSYDINWVRQAPGQGLEWMGWLNPNSGNTGYAQKFQGRVTMTADRSTSTAYMELSSLRSEDTAVYYCAREVPETAAFEYWGQGTLVTVSS
VL: QSVLTQPPSVSGAPGQRVTISCTSSSSDIGAGLGVHWYQQLPGTAPKLLIEGYYNRPSGVPDRFSGSKSGTSASLTITGLLPEDEGDYYCQSYSGTLSALFGGGTKLTVLG
notes: human IgG1, lambda
TL1A Binding Level (Early) [1]: 95 RU | TL1A Binding Level (Late) [2]: 67 RU

B12: 320-325 (antibody, human IgG1, name in Kabat numbering, V domains shown)
VH: QVQLVQSGAEVKKPGASVKVSCKASGYTFTSYDINWVRQAPGQGLEWMGWLNPNSGNTGYAQKFQGRVTMTADRSTSTAYMELSSLRSEDTAVYYCAREVPETAAFEYWGQGTLVTVSS
VL: QSVLTQPPSVSGAPGQRVTISCTSSSSDIGAGLGVHWYQQLPGTAPKLLIEGYYNRPSGVPDRFSGSKSGTSASLTITGLLPEDEGDYYCQSADGTLSALFGGGTKLTVLG
notes: human IgG1, lambda
TL1A Binding Level (Early) [1]: 95 RU | TL1A Binding Level (Late) [2]: 83 RU

B13: 320-327 (antibody, human IgG1, name in Kabat numbering, V domains shown)
VH: QVQLVQSGAEVKKPGASVKVSCKASGYTFTSYDINWVRQAPGQGLEWMGWLNPNSGNTGYAQKFQGRVTMTADRSTSTAYMELSSLRSEDTAVYYCAREVPETAAFEYWGQGTLVTVSS
VL: QSVLTQPPSVSGAPGQRVTISCTSSSSDIGAGLGVHWYQQLPGTAPKLLIEGYYNRPSGVPDRFSGSKSGTSASLTITGLLPEDEGDYYCQSQDGTLSALFGGGTKLTVLG
notes: human IgG1, lambda
TL1A Binding Level (Early) [1]: 130 RU | TL1A Binding Level (Late) [2]: 119 RU

B14: 320-319 (antibody, human IgG1, name in Kabat numbering, V domains shown)
VH: QVQLVQSGAEVKKPGASVKVSCKASGYTFTSYDINWVRQAPGQGLEWMGWLNPNSGNTGYAQKFQGRVTMTADRSTSTAYMELSSLRSEDTAVYYCAREVPETAAFEYWGQGTLVTVSS
VL: QSVLTQPPSVSGAPGQRVTISCTSSSSDIGAGLGVHWYQQLPGTAPKLLIEGYYNRPSGVPDRFSGSKSGTSASLTITGLLPEDEGDYYCQQYDGTLSALFGGGTKLTVLG
notes: human IgG1, lambda
TL1A Binding Level (Early) [1]: 18 RU | TL1A Binding Level (Late) [2]: 14 RU

B15: 320-316 (antibody, human IgG1, name in Kabat numbering, V domains shown)
VH: QVQLVQSGAEVKKPGASVKVSCKASGYTFTSYDINWVRQAPGQGLEWMGWLNPNSGNTGYAQKFQGRVTMTADRSTSTAYMELSSLRSEDTAVYYCAREVPETAAFEYWGQGTLVTVSS
VL: QSVLTQPPSVSGAPGQRVTISCTSSSSDIGAGLGVHWYQQLPGTAPKLLIEGYYNRPSGVPDRFSGSKSGTSASLTITGLLPEDEGDYYCWSYDGTLSALFGGGTKLTVLG
notes: human IgG1, lambda
TL1A Binding Level (Early) [1]: 65 RU | TL1A Binding Level (Late) [2]: 62 RU

B16: 320-331 (antibody, human IgG1, name in Kabat numbering, V domains shown)
VH: QVQLVQSGAEVKKPGASVKVSCKASGYTFTSYDINWVRQAPGQGLEWMGWLNPNSGNTGYAQKFQGRVTMTADRSTSTAYMELSSLRSEDTAVYYCAREVPETAAFEYWGQGTLVTVSS
VL: QSVLTQPPSVSGAPGQRVTISCTSSSSDIGAGLGVHWYQQLPGTAPKLLIEGYYNRPSGVPDRFSGSKSGTSASLTITGLLPEDEGDYYCQSWDGTLSALFGGGTKLTVLG
notes: human IgG1, lambda
TL1A Binding Level (Early) [1]: 173 RU | TL1A Binding Level (Late) [2]: 176 RU

B17: 320-337 (antibody, human IgG1, name in Kabat numbering, V domains shown)
VH: QVQLVQSGAEVKKPGASVKVSCKASGYTFTSYDINWVRQAPGQGLEWMGWLNPNSGNTGYAQKFQGRVTMTADRSTSTAYMELSSLRSEDTAVYYCAREVPETAAFEYWGQGTLVTVSS
VL: QSVLTQPPSVSGAPGQRVTISCTSSSSDIGAGLGVHWYQQLPGTAPKLLIEGYYNRPSGVPDRFSGSKSGTSASLTITGLLPEDEGDYYCQSYLGTLSALFGGGTKLTVLG
notes: human IgG1, lambda
TL1A Binding Level (Early) [1]: 21 RU | TL1A Binding Level (Late) [2]: 15 RU
